In patent US20240209076A1 (KODIAK SCIENCES, published 2024):
Positions count from the first letter of the chain named. Names may count otherwise.

B1: Anti-IL-6 antibody, heavy chain S35H, G66D, Q99Y / light chain WT (antibody, IgG1, V domains shown)
VH: EVQLVESGGGLVQPGGSLRLSCAASGFTFSPFAMHWVRQAPGKGLEWVAKISPGGSWTYYSDTVTDRFTFSLDTSKSTAYLQMNSLRAEDTAVYYCARYLWGYYALDIWGQGTLVTVSS
VL: DIQLTQSPSSLSASVGDRVTITCSASISVSYMYWYQQKPGKAPKLLIYDMSNLASGVPSRFSGSGSGTDFTLTISSLQPEDFATYYCMQWSGYPYTFGQGTKVEIK
notes: IgG1; variable domains only
B2: Anti-IL-6 antibody, heavy chain WT / light chain M32L, M50D, N52S, M88Q (antibody, IgG1, V domains shown)
VH: B1 VH with H35S, D66G, Y99Q
VL: B1 VL with M32L, M50D, N52S, M88Q
notes: IgG1; variable domains only; VL is variant III
B3: anti-IL-6 antibody, heavy chain I51A, G66D / light chain M32L, M50D, N52S, M88Q (antibody, IgG1, V domains shown)
VH: B1 VH with H35S, I51A, Y99Q
VL: B1 VL with M32L, M50D, N52S, M88Q
notes: Full IgG1 (Expi293); VL = variant III
B4: anti-IL-6 antibody, heavy chain I51R, G66D / light chain M32L, M50D, N52S, M88Q (antibody, IgG1, V domains shown)
VH: B1 VH with H35S, I51R, Y99Q
VL: B1 VL with M32L, M50D, N52S, M88Q
notes: as for B3
B5: anti-IL-6 antibody, heavy chain I51F, G66D / light chain M32L, M50D, N52S, M88Q (antibody, IgG1, V domains shown)
VH: B1 VH with H35S, I51F, Y99Q
VL: B1 VL with M32L, M50D, N52S, M88Q
notes: as for B3
B6: anti-IL-6 antibody, heavy chain S35K, G66D / light chain M32L, M50D, N52S, M88Q (antibody, IgG1, V domains shown)
VH: B1 VH with H35K, Y99Q
VL: B1 VL with M32L, M50D, N52S, M88Q
notes: as for B3
B7: anti-IL-6 antibody, heavy chain S35P, G66D / light chain M32L, M50D, N52S, M88Q (antibody, IgG1, V domains shown)
VH: B1 VH with H35P, Y99Q
VL: B1 VL with M32L, M50D, N52S, M88Q
notes: as for B3
B8: anti-IL-6 antibody, heavy chain I51E, G66D / light chain M32L, M50D, N52S, M88Q (antibody, IgG1, V domains shown)
VH: B1 VH with H35S, I51E, Y99Q
VL: B1 VL with M32L, M50D, N52S, M88Q
notes: as for B3
B9: anti-IL-6 antibody, heavy chain S35T, G66D / light chain M32L, M50D, N52S, M88Q (antibody, IgG1, V domains shown)
VH: B1 VH with H35T, Y99Q
VL: B1 VL with M32L, M50D, N52S, M88Q
notes: as for B3
B10: anti-IL-6 antibody, heavy chain I51V, G66D / light chain M32L, M50D, N52S, M88Q (antibody, IgG1, V domains shown)
VH: B1 VH with H35S, I51V, Y99Q
VL: B1 VL with M32L, M50D, N52S, M88Q
notes: as for B3
B11: anti-IL-6 antibody, heavy chain I51Q, G66D / light chain M32L, M50D, N52S, M88Q (antibody, IgG1, V domains shown)
VH: B1 VH with H35S, I51Q, Y99Q
VL: B1 VL with M32L, M50D, N52S, M88Q
notes: as for B3
B12: anti-IL-6 antibody, heavy chain I51S, G66D / light chain M32L, M50D, N52S, M88Q (antibody, IgG1, V domains shown)
VH: B1 VH with H35S, I51S, Y99Q
VL: B1 VL with M32L, M50D, N52S, M88Q
notes: as for B3
B13: anti-IL-6 antibody, heavy chain I51Y, G66D / light chain M32L, M50D, N52S, M88Q (antibody, IgG1, V domains shown)
VH: B1 VH with H35S, I51Y, Y99Q
VL: B1 VL with M32L, M50D, N52S, M88Q
notes: as for B3
B14: anti-IL-6 antibody, heavy chain S35Q, G66D / light chain M32L, M50D, N52S, M88Q (antibody, IgG1, V domains shown)
VH: B1 VH with H35Q, Y99Q
VL: B1 VL with M32L, M50D, N52S, M88Q
notes: as for B3
B15: anti-IL-6 antibody, heavy chain S35G, G66D / light chain M32L, M50D, N52S, M88Q (antibody, IgG1, V domains shown)
VH: B1 VH with H35G, Y99Q
VL: B1 VL with M32L, M50D, N52S, M88Q
notes: as for B3
B16: anti-IL-6 antibody, heavy chain I51T, G66D / light chain M32L, M50D, N52S, M88Q (antibody, IgG1, V domains shown)
VH: B1 VH with H35S, I51T, Y99Q
VL: B1 VL with M32L, M50D, N52S, M88Q
notes: as for B3
B17: anti-IL-6 antibody, heavy chain I51G, G66D / light chain M32L, M50D, N52S, M88Q (antibody, IgG1, V domains shown)
VH: B1 VH with H35S, I51G, Y99Q
VL: B1 VL with M32L, M50D, N52S, M88Q
notes: as for B3
B18: anti-IL-6 antibody, heavy chain S35E, G66D / light chain M32L, M50D, N52S, M88Q (antibody, IgG1, V domains shown)
VH: B1 VH with H35E, Y99Q
VL: B1 VL with M32L, M50D, N52S, M88Q
notes: as for B3
B19: anti-IL-6 antibody, heavy chain S35L, G66D / light chain M32L, M50D, N52S, M88Q (antibody, IgG1, V domains shown)
VH: B1 VH with H35L, Y99Q
VL: B1 VL with M32L, M50D, N52S, M88Q
notes: as for B3
B20: anti-IL-6 antibody, heavy chain I51L, G66D / light chain M32L, M50D, N52S, M88Q (antibody, IgG1, V domains shown)
VH: B1 VH with H35S, I51L, Y99Q
VL: B1 VL with M32L, M50D, N52S, M88Q
notes: as for B3
B21: anti-IL-6 antibody, heavy chain S35F, G66D / light chain M32L, M50D, N52S, M88Q (antibody, IgG1, V domains shown)
VH: B1 VH with H35F, Y99Q
VL: B1 VL with M32L, M50D, N52S, M88Q
notes: as for B3
B22: anti-IL-6 antibody, heavy chain I51D, G66D / light chain M32L, M50D, N52S, M88Q (antibody, IgG1, V domains shown)
VH: B1 VH with H35S, I51D, Y99Q
VL: B1 VL with M32L, M50D, N52S, M88Q
notes: as for B3
B23: anti-IL-6 antibody, heavy chain I51W, G66D / light chain M32L, M50D, N52S, M88Q (antibody, IgG1, V domains shown)
VH: B1 VH with H35S, I51W, Y99Q
VL: B1 VL with M32L, M50D, N52S, M88Q
notes: as for B3
B24: anti-IL-6 antibody, heavy chain I51H, G66D / light chain M32L, M50D, N52S, M88Q (antibody, IgG1, V domains shown)
VH: B1 VH with H35S, I51H, Y99Q
VL: B1 VL with M32L, M50D, N52S, M88Q
notes: as for B3
B25: anti-IL-6 antibody, heavy chain S35D, G66D / light chain M32L, M50D, N52S, M88Q (antibody, IgG1, V domains shown)
VH: B1 VH with H35D, Y99Q
VL: B1 VL with M32L, M50D, N52S, M88Q
notes: as for B3
B26: anti-IL-6 antibody, heavy chain I51K, G66D / light chain M32L, M50D, N52S, M88Q (antibody, IgG1, V domains shown)
VH: B1 VH with H35S, I51K, Y99Q
VL: B1 VL with M32L, M50D, N52S, M88Q
notes: as for B3
B27: anti-IL-6 antibody, heavy chain S35I, G66D / light chain M32L, M50D, N52S, M88Q (antibody, IgG1, V domains shown)
VH: B1 VH with H35I, Y99Q
VL: B1 VL with M32L, M50D, N52S, M88Q
notes: as for B3
B28: anti-IL-6 antibody, heavy chain S35A, G66D / light chain M32L, M50D, N52S, M88Q (antibody, IgG1, V domains shown)
VH: B1 VH with H35A, Y99Q
VL: B1 VL with M32L, M50D, N52S, M88Q
notes: as for B3

These binders were tested against human IL-6 (human, UniProt P05231 30-212) (assay: SPR Biacore, supernatant, Protein A capture, 37 C).
Method in brief: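 Antibodies from 1:20-diluted culture supernatant in HBS-EP+ were captured on a Protein A chip at 37 C, with 10 mM glycine pH 1.7 regeneration. Sensorgrams were double-reference subtracted and fitted to a 1:1 Langmuir model.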
Target sequence in this assay (P05231 30-212 limits assumed): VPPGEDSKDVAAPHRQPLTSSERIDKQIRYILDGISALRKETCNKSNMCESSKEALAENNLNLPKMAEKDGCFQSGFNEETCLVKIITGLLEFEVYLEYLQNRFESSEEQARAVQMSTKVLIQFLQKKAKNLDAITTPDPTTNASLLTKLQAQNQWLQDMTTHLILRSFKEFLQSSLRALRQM

Kd | koff | kon | Binder
0.825 nM | 0.00215 s⁻¹ | 2.6e+06 M⁻¹ s⁻¹ | B1
0.686 nM | 0.000631 s⁻¹ | 920000 M⁻¹ s⁻¹ | B2

What follows are binders tested against T1, human IL-6 (human, UniProt P05231 30-212) (assay: SPR Biacore, supernatant Ab on Protein A chip, 37 C).
T1 construct: IL-6 flowed over captured antibodies
Method: Antibodies were captured on a Protein A chip (GE) by injecting 1:20 cell supernatant dilutions at 10 μL/min for 60 seconds. […] The sensor chip was regenerated by a 60 seconds injection of 10 mM Glycine pH 1.7 at the flow rate of 50 μL/min. […] For this setup, 1 μg/mL of purified antibody was injected over a Protein A chip at 10 μL/min for 25 seconds. […] The sensor chip was regenerated by a 60 seconds injection of 10 mM Glycine pH 1.7 at flow rate of 50 μL/min. Data analysis for supernatant and purified samples were performed using BIAevaluation software (GE). All sensorgrams were double reference subtracted and fit using a 1:1 Langmuir binding model.
T1 sequence (P05231 30-212 limits assumed): as above

Kd | koff | kon | Binder
0.559 nM | 0.000899 s⁻¹ | 1.61e+06 M⁻¹ s⁻¹ | B3
0.0357 nM | 5.8e-05 s⁻¹ | 1.63e+06 M⁻¹ s⁻¹ | B4
4.45 nM | 0.00611 s⁻¹ | 1.37e+06 M⁻¹ s⁻¹ | B5
2.64 nM | 0.00346 s⁻¹ | 1.31e+06 M⁻¹ s⁻¹ | B6
27.1 nM | 0.00548 s⁻¹ | 202000 M⁻¹ s⁻¹ | B7
2.14 nM | 0.00196 s⁻¹ | 914000 M⁻¹ s⁻¹ | B8
0.498 nM | 0.000711 s⁻¹ | 1.43e+06 M⁻¹ s⁻¹ | B9
1.11 nM | 0.00195 s⁻¹ | 1.76e+06 M⁻¹ s⁻¹ | B10
0.575 nM | 0.00113 s⁻¹ | 1.96e+06 M⁻¹ s⁻¹ | B11
0.217 nM | 0.000401 s⁻¹ | 1.85e+06 M⁻¹ s⁻¹ | B12
4.04 nM | 0.0247 s⁻¹ | 6.1e+06 M⁻¹ s⁻¹ | B13
0.3 nM | 0.000626 s⁻¹ | 2.09e+06 M⁻¹ s⁻¹ | B14
0.609 nM | 0.000781 s⁻¹ | 1.28e+06 M⁻¹ s⁻¹ | B15
0.233 nM | 0.000478 s⁻¹ | 2.05e+06 M⁻¹ s⁻¹ | B16
0.652 nM | 0.000912 s⁻¹ | 1.4e+06 M⁻¹ s⁻¹ | B17
0.867 nM | 0.00189 s⁻¹ | 2.18e+06 M⁻¹ s⁻¹ | B18
2.59 nM | 0.00243 s⁻¹ | 942000 M⁻¹ s⁻¹ | B19
0.98 nM | 0.00161 s⁻¹ | 1.64e+06 M⁻¹ s⁻¹ | B20
3.17 nM | 0.00484 s⁻¹ | 1.53e+06 M⁻¹ s⁻¹ | B21
9.58 nM | 0.00799 s⁻¹ | 834000 M⁻¹ s⁻¹ | B22
4.84 nM | 0.00383 s⁻¹ | 791000 M⁻¹ s⁻¹ | B23
0.5 nM | 0.00104 s⁻¹ | 2.07e+06 M⁻¹ s⁻¹ | B24
0.753 nM | 0.00177 s⁻¹ | 2.35e+06 M⁻¹ s⁻¹ | B25
0.349 nM | 0.000601 s⁻¹ | 1.72e+06 M⁻¹ s⁻¹ | B26
1.62 nM | 0.00147 s⁻¹ | 904000 M⁻¹ s⁻¹ | B27
0.657 nM | 0.00126 s⁻¹ | 1.93e+06 M⁻¹ s⁻¹ | B28
